# B1: Protein phosphatase 1 regulatory subunit 15B (Homo sapiens), Q5SWA1 (parent)
# chain: MEPGTGGSRKRLGPRAGFRFWPPFFPRRSQAGSSKFPTPLGPENSGNPTLLSSAQPETRVSYWTKLLSQLLAPLPGLLQKVLIWSQLFGGMFPTRWLDFAGVYSALRALKGREKPAAPTAQKSLSSLQLDSSDPSVTSPLDWLEEGIHWQYSPPDLKLELKAKGSALDPAAQAFLLEQQLWGVELLPSSLQSRLYSNRELGSSPSGPLNIQRIDNFSVVSYLLNPSYLDCFPRLEVSYQNSDGNSEVVGFQTLTPESSCLREDHCHPQPLSAELIPASWQGCPPLSTEGLPEIHHLRMKRLEFLQQASKGQDLPTPDQDNGYHSLEEEHSLLRMDPKHCRDNPTQFVPAAGDIPGNTQESTEEKIELLTTEVPLALEEESPSEGCPSSEIPMEKEPGEGRISVVDYSYLEGDLPISARPACSNKLIDYILGGASSDLETSSDPEGEDWDEEAEDDGFDSDSSLSDSDLEQDPEGLHLWNSFCSVDPYNPQNFTATIQTAARIVPEEPSDSEKDLSGKSDLENSSQSGSLPETPEHSSGEEDDWESSADEAESLKLWNSFCNSDDPYNPLNFKAPFQTSGENEKGCRDSKTPSESIVAISECHTLLSCKVQLLGSQESECPDSVQRDVLSGGRHTHVKRKKVTFLEEVTEYYISGDEDRKGPWEEFARDGCRFQKRIQETEDAIGYCLTFEHRERMFNRLQGTCFKGLNVLKQC
# Variants of: B1
# Settings: with pp1g_human PPP1CC
row,Variant,effect of a mutation on the interaction
1,R658C,decreasing interaction strength

# Variants of: B1
# Settings: with pp1g_human PPP1CC
# Remark: another data set of the same source
row,Variant,effect of a mutation on the interaction
1,R658C,disrupting interaction strength

# Reference: IntAct's records for PubMed 26307080
